# Test results reported in the supplement of paper PMC9170038.
# Test system: MS2 coat protein
# Experiment: apparent KD of MS2 coat protein; higher = weaker reporter binding
# Conditions: Eterna round: R107
# Method in brief: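 In 100 mM Tris-HCl pH 7.5 with 80 mM KCl and 4 mM MgCl2, and without or with constant ligand, SNAP-549-labelled MS2 coat protein was titrated in twofold steps from 0.7 or 1.5 nM to 3 µM. Per-step times went from 0.8–1.5 h down to 10–20 min. The RNA switches were transcribed on-chip from Illumina sequencing clusters, and apparent KD is the per-design median of normalised cluster binding-curve fits.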
# [1] = input ligand: theophylline 20 uM
# [2] = input ligand: theophylline 2 mM
# [3] = input ligand: tryptophan 2.4 mM
Sequence,apparent KD of MS2 coat protein (input ligand: arginine 13.2 mM) [nM],apparent KD of MS2 coat protein (input ligand: none) [nM],apparent KD of MS2 coat protein [1] [nM],apparent KD of MS2 coat protein [2] [nM],apparent KD of MS2 coat protein [3] [nM]
AUACAUGAGUGUUUGAUUAUAGAAACUGAAGGAGCGUGGUAGUACACAGGUAGGUCGCAGUAAAUACAUGAGGAUCACCCAUGUU [JR_Nu_SSArginiA_Sub026],29.2,32.9,36.5,36.5,38.4
CUACAUUUGUAGAAACCGGUCAACAUUAUUCGAGGACCGGUACGGCCGCCACUCGUAUAUUUUUAUACAUGAGGAUCACCCAUGU [Tryptophan A 7],14.4,,14.4,13,
UGUAUGUGAUCUGAUACCAGCUAGCGGAAACGCAGCUUGAGGAUCACCCAAGUGGAAAUAAGCCCUUGGCAGCAGAUCGCAUACU [Denovo 6 #StaticStem #AlternativeMS2],99.7,246,139,11.9,309
AGCAACAAGUCGGCCGCCACUCAUAUUACAUGAGGAUCACCCAUGUUUACAUCAAGGUCAUAAUAGAGGACCGGGACAGUUGCAU [JR_SSTryptoB_Sub017],24.5,,39.3,41.5,
UAUAAAAUAACAGAUACCAGCGUGUUAUAAAACAUGAGGAUCACCCAUGUAGUGAUCAAGCGCCCUUGGCAGCUGGUAUUUUAUA [7.B],97.2,,150,,142
ACAUGAGGAUCACCCAUGUAUGAUGUUCCUCGAGGACCGGUACGGCCGCCACUCGAACGAGUGGCACGCGAGUGCGCACUCGCGU [aXa],22.1,14.2,19.6,14.9,11.7
UGUUUUAAAAGUGAUACCAGACAAACAUGAGGAUCACCCAUGUAACAUGAGAGAUAAUAAGUCCCUUGGCAGCACAUAAUUAGUA [JR_Nu_SSTheophyB_Sub028],27,,33.1,,31.5
GCUGUAAGUGCAGAUACCAGCAAGUGAUAUUUCAUAUGACAUGAGGAUCACCCAUGUAACUGCCCUUGGCAGCUGCACUUACAGC [SSTHB #10],114,,122,,241
GGCUGUUGCUCUUUGAAGCGGCAGCGUGAUACCAGAUGUAAGAGCGUCCCUUGGCAGCACGUUUACAUGAGGAUCACCCAUGUCA [Raisquin],70.6,,163,,151
GUAAAUUAUAGAAGGAGCGUCGAAAAUGGGUAAACAUGAGGAUCACCCAUGUAAAGGGAACGACAGGUAGGUCGCUAUAAUUUAC [AstromonsSSArgB#15],116,170,190,259,167
AUACGGAACAGAAGGAGCGCACCGACAUGAGGAUCACCCAUGUGGGAUGGGACUCUUUUGGUGCAGGUAGGUCGCUGUCACGCAU [Maistile],129,35,51.9,44,35.5
CCGGAGACCGUGUCAGCGGAAGCAAGAACACGAGGACCGGUACGGCCGCCACUCGAAAGAAGACAUGAGGAUCACCCAUGUCCAU [theeternabot_exclusion_MS2_Trp_A_43],10.5,,15.1,13.8,
AUAAUAGGGAUAAUUAGUUUUAGGUCCAGUCGAGGACCGGUACGGCCGCCACUCGUACAGAAAUACAUGAGGAUCACCCAUGUUA [JR_SSTryptoA_Sub005],14,13.6,21.5,15.1,16.1
AUAUAUACAUGAGGAUCACCCAUGUUAUUUCGAGGACCGGUACGGCCGCCACUCGAUAGAGUAGAAGUAACAUUUGUUAGAUGAU [JR_SSTryptoA_Sub012],23.9,,25.2,24.4,
GAUAUAUAUCGAAGGAGCGGCCCUUGAUCCUCAUGAGACAUGAGGAUCACCCAUGUCUCGGGCCAGGUAGGUCGCGAUAUAUAUC [Astros-omei-mod2],26.3,21.2,28.8,24.2,22.8
ACAUGGGUCUGAAGGAGCGCGAUAACAUGAGGAUCACCCAUGUAAAGUGGAACAUGAUAAUCGCAGGUAGGUCGCAGUAAAACCC [#26 Same State - Arginine B],81.6,412,293,476,328
UGUAUGUGAUUUGAUACCAGACCAGCUGGUGGUACCUGAGGAUCACCCAGGUAGGUUUGGGUCCCUUGGCAGCAAAUCGCAUACU [SS Theo B #24 Ms6],22,20.6,23.8,11.4,21.2
UGUAACAUGAGGAUCACCCAUGUAAGUGAUACCAGAUAAGUAGUAGUCCCUUGGCAGCAUAUUGGGAAAGUGUAUAGUCUAUACG [Same State - Theophylline A (Freestyle 5)],50,,75.3,,46.4
AGUUUAGACACGGCCGCCACUCGUGACAGAUUUAGCAGUGGUCAACAUGAGGAUCACCCAUGUCUGAGGACCGGGUGUUGAGUUU [XTryp B #6],78.9,,176,217,

Sequence,apparent KD of MS2 coat protein (input ligand: arginine 13.2 mM) [nM],apparent KD of MS2 coat protein (input ligand: none) [nM],apparent KD of MS2 coat protein [1] [nM],apparent KD of MS2 coat protein [2] [nM],apparent KD of MS2 coat protein [3] [nM]
CUACAUUUGUAGAAACCGGUCAACAAUAAUCGAGGACCGGUACGGCCGCCACUCGAUGUGUUAUACACAUGAGGAUCACCCAUGU [Tryptophan A 14],21.7,,24.7,22.9,
ACCUGUACGAAAAGUGCAGGACACGGAAUACGAGGACCGGUACGGCCGCCACUCGGAAACCUGAGGAUCACCCUGGUAAACCGUG [TrypAS 12 #AlternativeMS2 #Zipper #StaticStem],26.9,25.2,33.5,31.1,23.3
AUGUCGUUGAAUAUAGCGGCUUGGAGUGAUACCAGUAUGAUCCAAUACCCUUGGCAGCAUAACAUGAGGAUCACCCAUGUUCCAG [SSTheo A #25],19.5,,43.7,,18.6
AUGUAUGUCAGAAGGAGCGUCUUUAACAUGAGGAUCACCCAUGUAACAUUGAAUUCGAUGAGACAGGUAGGUCGCUGAAUAGUAA [SS-ArgB25],29.7,35,66,18.8,21.9
GUCUCUGAGAGAAGGAGCGUGAAGACAUGAGGAUCACCCAUGUAGAGGCGCCGACGGCGUUCGCAGGUAGGUCGCUCUCAGAGAC [#1 Same State - Arginine B Attempt #19 (HarryS)],38.4,22,35,17.1,23.7
AUACAUGAGGAUCACCCAUGUCCUCGUGAUCGAGGACCGGUACGGCCGCCACUCGGUCCUCGCGAGGAGGAGUCAAAGACUCCUA [Omei Trp A SS A v6],97.2,,230,240,
GGGUUACUCUAUGAUACCAGUUCCAUGCCGAAACCUGUGUACAUGAGGAUCACCCAUGUGAACCCUUGGCAGCAUUAAUCAACUG [theeternabot_exclusion_MS2_Theo_B_35],51.5,,163,,69.5
GAUGAACUAUAUGAUACCAGACAACAUGAGGAUCACCCAUGUGUAAGUCGUCCUCUGCCUGUCCCUUGGCAGCGUAUAGUUUAUC [XTheo B #18],43.2,,76.4,,23.3
ACGGAGAUGUCGGCCGCCACUGAACUCAUGUUCAACAUGAGGAUCACCCAUGUACCUUAGUUUAUCAGGACCGGGACAUAUACGA [JR_ExcTryptoB_Sub003],79.7,,170,183,
ACACAUGAGGGAAGGAGCGCCAUGAACACACAUGAGGAUCACCCAUGUUUUUUUUGUGUUUGGCAGGUAGGUCGCCCACAUGAGG [Same State Arginine B 2],7.38,10.1,22.5,9.33,7.57
AAAGGUCGCAAUAAAUCUCCUACAUGUGAAGGAGCGCCCGAAAGGGCAGGUAGGUCGCACAUGAGGAUCACCCAUGUGAGCGACC [MAT - Exclusion Arginine A - Mod of Eli - D2],10.3,12.4,14.6,13,11.8
AGCGUAUAGACGGAUACCAGCGCCAAUUAACAUGAGGAUCACCCAUGUAGUGUGGGUGGACGCCCUUGGCAGCCGAGUAUAGGUA [Exclusion - Theophylline B / A],57.3,,274,,250
ACAUGAGGAUCACCCAUGUUCCUCGCCGAUACCAGUGAAGAAGAACGCCCUUGGCAGCGGAAAGAAUAUAUUGGAGAUGAUAUAU [6.U],111,,252,,225
UCGUGUAAAACGGAUACCAGUGAGAAGGAUACAUGAGGAUCACCCAUGUGAGUUGAUCCACACCCUUGGCAGCUGUAUAUAUCUA [ozomullin],105,,185,,122
UUGGGUUUGUGAAGGAGCGGGUAUGUUUUAUAGUGGAUCCUAACAUGAGGAUCACCCAUGUCCCAGGUAGGUCGCGCGGGUUUGG [12.T],54.4,78.3,203,149,117
AGACGAGAAGAGGUUUACCCAUGUACAGAAGGAGCGUCGUUGACGACAGGUAGGUCGCUGAAAACAUGAGGAUCACCCAUGUUGA [#05 Exclusion - Arginine A],62.9,31.1,35.3,39.7,31.7
GGGUGCGGCACGGCCGCCACUGCGGUGGUGUGACAUGAGGAUCACCCAUGUUGUCAUGCGGCCCUUAGGACCGGGUGGCGUGCCU [#1 Exclusion - Tryptophan B Attempt #15 (HarryS)],5.27,24.1,31.2,89.5,38
GGAGGUGAGAGAAGGAGCGGAAGUUUCGUUACAACAUGAGGAUCACCCAUGUAACGUUUAGUCCAGGUAGGUCGCUCUCGGGCGG [jbbgmullin],19.2,16.3,25.2,30.7,26.9
UACAAACAUGAGGAUCACCCAUGUAGUGAUACCAGCAUAACAGAUUGCCCUUGGCAGCACCGGUUUGUACUCAAACGAAGUACGG [theeternabot_sameState_MS2_Theo_A_36],56,,86.2,,52.9
